The values below come from publication PMC10440729 (Journal of the American Chemical Society, 2022).

Data set [1] relates to STZ-induced C57BL/6J diabetic mouse model. Put plainly: Blood glucose lowering in STZ-induced diabetic mice. Type of data set: in vivo. The note with it: 5 IU insulin/kg subcutaneous, blood glucose after 4 hours, n = 3.
For data set [2] the following is noted: reported value, cited from earlier work.
The nature of data set [3]: DOSY NMR diffusion coefficient / oligomerization state. Type of data set: physicochemical. The following applies: 4 °C, suggests a mixture of dimers and hexamers.

As to “2A-S-Ins: discrete 2A IEG polytriazole (all S) conjugated to N-terminus of insulin chain B by SPAAC”, in data set [1], the “duration of blood glucose response” value is “longer-lasting effects than Lantus”.

Regarding insulin, the “reported D of dimers” value in data set [2] (insulin dimers) is 1.22 × 10^−6 cm^2/s. For the same substance, the “reported D of hexamers” value in data set [2] (insulin hexamers) is 0.87 × 10^−6 cm^2/s. For the same substance, the “diffusion coefficient (D)” value in data set [3] is ~ 1 × 10^−6 cm^2/s.
